These results are taken from publication PMC7614608 (Nature, 2023).

This experiment has as its target T1, 6x-His-3C-EIF4A3 (human, UniProt P38919 1-411).
T1 construct: EIF4A3, human, full length; source: E. coli BL21 DE3 RIL, purified (HisTrap, HiTrapQ, Superdex 75); not shown: His6, N-terminal, kept
As to the kind of experiment: pull-down; MBP-tagged bait (ALYREF constructs or CASC3 SELOR) mixed overnight at 4 °C with EIF4A3, Y14(66-154)–MAGOH, ssRNA and AMP-PNP in 25 mM HEPES pH 7.9, 50 mM NaCl, 5 mM MgCl2; held on amylose resin, maltose elution, SDS-PAGE with Coomassie. The note with it: both partners purified.

T1 sequence (P38919 whole entry): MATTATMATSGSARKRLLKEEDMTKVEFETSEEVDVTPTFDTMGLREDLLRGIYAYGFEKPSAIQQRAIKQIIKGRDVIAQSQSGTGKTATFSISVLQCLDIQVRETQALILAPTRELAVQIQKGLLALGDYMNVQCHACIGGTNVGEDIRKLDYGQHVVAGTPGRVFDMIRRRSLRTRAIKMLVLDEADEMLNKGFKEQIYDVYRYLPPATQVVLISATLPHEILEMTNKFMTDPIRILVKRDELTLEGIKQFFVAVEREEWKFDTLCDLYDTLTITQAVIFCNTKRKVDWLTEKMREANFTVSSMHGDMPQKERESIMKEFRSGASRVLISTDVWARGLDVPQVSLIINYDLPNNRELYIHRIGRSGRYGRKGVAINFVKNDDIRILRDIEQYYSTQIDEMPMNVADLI

B1: 10x-His-MBP-3C-ALYREFN (ALYREF residues 1-182) (domain or fragment)
chain: not shown
notes: also called MBP-ALYREFN; source: E. coli BL21 DE3 RIL, purified (HisTrap, cation exchange, Superdex 75); not shown: His10, N-terminal, kept; MBP, N-terminal, kept
As to B1, the binding result is listed as “binds”.
